B1: REGN10987 (antibody, V domains shown)
VH: QVQLVESGGGVVQPGRSLRLSCAASGFTFSNYAMYWVRQAPGKGLEWVAVISYDGSNKYYADSVKGRFTISRDNSKNTLYLQMNSLRTEDTAVYYCASGSDYGDYLLVYWGQGTLVTVSS
VL: QSALTQPASVSGSPGQSITISCTGTSSDVGGYNYVSWYQQHPGKAPKLMIYDVSKRPSGVSNRFSGSKSGNTASLTISGLQSEDEADYYCNSLTSISTWVFGGGTKLTVLR
B2: PDI 96 (antibody, V domains shown)
VH: LVQLVQSGAEVKKPGASVKISCKASGYTFTSYYMHWVRQAPGQGLEWMGIINPSGGGTSYAQKFQGRVTMTRDTSTSTVYMELTSLRSDDTAVYYCAKDRVTIFWGNGMDVWGQGTTVTVSS
VL: not shown
B3: PDI 231 (antibody, V domains shown)
VH: EVQLVESGGGLIQPGGSLRLSCVASGLTVSSNYMNWVRQTPGKGLEWVSVIYSGGSTFYADSVKGRFTISRDNSKNTLFLQMNSLRAEDTAVYYCARVGGYCSSANCVSDVWGKGTTVTVSS
VL: DIQMTQSPSSLSASVGDRVTITCQASQDIRNYLNWYQQKPGKAPKIMIYDASILETGVPSRFSGSGSGTDFTFTISSLQPEDIATYYCQQYDNLPITFGQGTQLEIK
B4: PDI 42 (antibody, V domains shown)
VH: EVQLVESGGGLVQPGGSLRLSCAASGLTVSSNYMSWVRQAPGKGLEWVSVFYPGGSTYNADSVKGRFTISRDNSKNTLYLQMNSLRAEDTAVYYCARDAVYYGMDVWGQGTTVTVSS
VL: not shown
B5: REGN10933 (antibody, V domains shown)
VH: QVQLVESGGGLVKPGGSLRLSCAASGFTFSDYYMSWIRQAPGKGLEWVSYITYSGSTIYYADSVKGRFTISRDNAKSSLYLQMNSLRAEDTAVYYCARDRGTTMVPFDYWGQGTLVTVSS
VL: DIQMTQSPSSLSASVGDRVTITCQASQDITNYLNWYQQKPGKAPKLLIYAASNLETGVPSRFSGSGSGTDFTFTISGLQPEDIATYYCQQYDNLPLTFGGGTKVEIKR

What was measured:
SARS-CoV-2 WT RBD = SARS-CoV-2 WT RBD (SARS-CoV-2, UniProt P0DTC2 319-541); assay: BLI
RBD = RBD (SARS-CoV-2, UniProt P0DTC2 319-541); assay: ELISA
[1] = target: T1, SARS-CoV-2 spike receptor-binding domain (RBD) (SARS-CoV-2, UniProt P0DTC2 319-541); assay: BLI
[2] = target: T1, SARS-CoV-2 spike receptor-binding …; assay: ELISA

Row | Binder | Kd (SARS-CoV-2 WT RBD) [nM] | IC50 (RBD) [µg/mL] | Kd [1] [nM] | IC50 [2] [µg/mL]
1 | B1 | 17.6 | 0.298 |  | 
2 | B2 |  |  | 2.6 | 0.346
3 | B3 |  |  | 0.38 | 0.328
4 | B4 |  |  | 1.1 | 0.31
5 | B5 | 3.5 | 0.293 |  | 
